This data set can be described thus: soluble on expression in E. coli; label from the status in PepcDB or PDB records.
Take “MIAGGFGAGKTTAVGAVSEITPLSTEEYLTEASADVDSLAGLASKRTTTVAFDFGRLSLPDAPMPLELFLFGTPGQDRFVDLWYDLSRGAVGAVVLVDTRRLESSFTPVSFFEDIGLPFVVAVNRFDGAHRYHPEQVRAALELPAAVPVVTCDAREPNHVAGVLLALVDHAVNCAATTNRAGHTPSTTLQDALEHHHHHH”: the “soluble on expression in E. coli” value is given as “not soluble”.

Consider “MGSDKIHHHHHHMAILERKIIHEIDTSCSHIIYPQFVLPRHKHAEYEIMLFTQGSGKQFVGEGVADFQEGDIALIGSNVPHLHLCNSKLNPVANTVCSAGEALQFLPDIFPVHIENLPDYQEIYRLLRKSQYGVRFYDKGLYDEVKELFQEMDLLKHTNRLITILRILGRLTECRNIKLLSDVAYNGSNRLLEVNEPVNKVYTYLFNHFKEKVLLQEVADYVKQNPSALCRYFKQRTDKSIFQCLAEIRIEHACKLLSYSNLSVSQIAFESGFNSVPYFIKQFQSITEKTPGEYRELIGR”, for which the “soluble on expression in E. coli” value is given as “not soluble”.

With “MASVELSADVPISPQDTWDHVSELSELGEWLVIHEGWRSELPDQLGEGVQIVGVARAMGMRNRVTWRVTKWDPPHEVAMTGSGKGGTKYGVTLTVRPTKGGSALGLRLELGGRALFGPLGSAAARAVKGDVEKSLKQFAELYGLEHHHHHH”, the “soluble on expression in E. coli” value is given as “not soluble”.

As for “MVQQQQQSQQRMMELHERNDREKLARKTEKEREEERRKQEDDKILQLEKKLEEFQENARFIGDLASNFQTKYQDALNGRIYTLVRGLQDLDRMKGTFSDKKVPLDLLPYLDDGKNPCLYSKHCMEKTLEKNKAVNGKIEIYKKFRAHLMKEFSEEMPDLVMYYRSIREDLDLS”, the “soluble on expression in E. coli” value is “not soluble”.

Consider “GPGSMQRLFFRSTCARVRCADLRLKPPVSIPQVTFQTVAFSSSAAGAAVRSGAEGTNTTTKRRSGFGGGAGGGGPVKDRYPPPATDLGDPRRRLAVLVDASSVDPRVFRNTILPAALKVGTPVLIRIFSVQLSSEWEPLVAGSGGTRESATSTEPEWKTSGTANDGREEVSGAAGSRDSGAWCPPVEFFRVERFIPVPMQMEADANHIFDFRKQNQIEAVAFVCGEVDRGVFEGFLPNIAGNGFNQYVLDELGMAKEVLEDGRSEDGTPTVQK”, for which the “soluble on expression in E. coli” value is given as “soluble”.

With “MTDSKYFTTNKKGEIFELKAELNNEKKEKRKEAVKKVIAAMTVGKDVSSLFPDVVNCMQTDNLELKKLVYLYLMNYAKSQPDMAIMAVNSFVKDCEDPNPLIRALAVRTMGCIRVDKITEYLCEPLRKCLKDEDPYVRKTAAVCVAKLHDINAQMVEDQGFLDSLRDLIADSNPMVVANAVAALSEISESHPNSNLLDLNPQNINKLLTALNECTEWGQIFILDCLSNYNPKDDREAQSICERVTPRLSHANSAVVLSAVKVLMKFLELLPKDSDYYNMLLKKLAPPLVTLLSGEPEVQYVALRNINLIVQKRPEILKQEIKVFFVKYNDPIYVKLEKLDIMIRLASQANIAQVLAELKEYATEVDVDFVRKAVRAIGRCAIKVEQSAERCVSTLLDLIQTKVNYVVQEAIVVIRDIFRKYPNKYESIIATLCENLDSLDEPDARAAMIWIVGEYAERIDNADELLESFLEGFHDESTQVQLTLLTAIVKLFLKKPSETQELVQQVLSLATQDSDNPDLRDRGYIYWRLLSTDPVTAKEVVLSEKPLISEETDLIEPTLLDELICHIGSLASVYHKPPNAFVEGSHGIHRK”, the “soluble on expression in E. coli” value was “soluble”.

As for “MMELETGQCTIMELKKENVKELAQVFKTVAFKDTGTWHASEAGMKITVDDGSYQLASVFINPAFFSSFKVREEIVSMKISIKSISEFLSISENSSSSVKVSYPGMFQPVKMLVEDADGWVARGNFTTTLADQELDFEFDDAGVLATYLLKTQVLKEIIKDFDDTSRTVRIQFTKNSLCFTTFGDVGETTVSIPSRSLQMESVKCLEEVEFSYLLSLIQRMTTAFILATKLILRVDERGVLSCQFSIDHGEGNASYIEFLTVPADEEE”, the “soluble on expression in E. coli” value is reported as “not soluble”.

On to “MSYSIVRVSKVKSGTNTTGIQKHVQRENNNYENEDIDHSKTYLNYDLVNANKQNFNNLIDEKIEQNYTGKRKIRTDAIKHIDGLITSDNDFFDNQTPEDTKQFFEYAKEFLEQEYGKDNLLYATVHMDEKTPHMHYGVVPITDDGRLSAKEVVGNKKALTAFQDRFNEHVKQRGYDLERGQSRQVTNAKHEQISQYKQKTEYHKQEYERESQKTDHIKQKNDKLMQEYQKSLNTLKKPINVPYEQETEKVGGLFSKEIQETGNVVISQKDFNEFQKQIKAAQDISEDYEYIKSGRALDDKDKEIREKDDLLNKAVERIENADDNFNQLYENAKPLKENIEIALKLLKILLKELERVLGRNTFAERVNKLTEDEPKLNGLAGNLDKKMNPELYSEQEQQQEQQKNQKRDRGMHLLEHHHHHH”, for which the “soluble on expression in E. coli” value is given as “soluble”.

Turning to “MNNTDPTSFESILAGVAKLRKEKSGADTTGSQSLEIDASKLQQQEPQTSRRINSNQVINAFNQQKPEEWTDSKATDDYNRKRPFRSTRPGKTVLVNTTQKENPLLNHLKSTNWRYVSSTGINMIYYDYLVRGRSVLFLTLTYHKLYVDYISRRMQPLSRNENNILIFIVDDNNSEDTLNDITKLCMFNGFTLLLAFNFEQAAKYIEYLNL”, the “soluble on expression in E. coli” value is reported as “soluble”.

For the sequence “MRKFMMSVVMLAALTSCATQNMHGNYAAVSIEANKTMADVTVAQLVALYPPAHTRLDFQQTITDPYGAALLSALRKKGYSVLEYNPQPQAVPAKSAATAALVTANPTSGLPLSYVVDSPESMNLYRITVQIGVQSISRAFVVATNGNLYPAGAWVRKELEHHHHHH”, the “soluble on expression in E. coli” value is on record as “not soluble”.

As to “MSLGKFLVEREQMRYPVDVYTGKIQAYPEGKPSAIAKIQVDGELMLTELGLEGDEQAEKKVHGGPDRALCHYPREHYLYWAREFPEQAELFVAPAFGENLSTDGLTESNVYMGDIFRWGEALIQVSQPRSPCYKLNYHFDISDIAQLMQNTGKVGWLYSVIAPGKVSADAPLELVSRVSDVTVQEAAAIAWHMPFDDDQYHRLLSAAGLSKSWTRTMQKRRLSGKIEDFSRRLWGKEGGSHHHHHH”, the “soluble on expression in E. coli” value is recorded as “soluble”.

As to “MAISNILPRKIMKNRTRQQSMAERHDYDQKEEKTDGGELVSSYMCSPETAAEEFEISKKLYAQLTGRSQSEKHDIIMYRIIQSFKPDEVSPEEAHKIGCELAMKFTGGQHQFVVATHTDKRHIHTHIEFNSTNLNCDAKFQNVKNSAFILRRMNDELCRAHGLSVIENPKKKARPQKEMAAAQYGVSHKKQLQQAIDRLLPECNHYEEFLAKMRAEGYEVVDGKNPGFRLPGWDRPTRVNRLGDDYTKTALRARITSQRRRLTSGKTAPKRTGRKVNLLIDIQAKLAAGKGAGYERWAKIFNLKEAAKTLNFLIENNLTDYDELALRAEQAENGFNAVSQKIKQLEARMAGIAQLKTHIIQYSKTREVYAAYKKSRHKKEFLAEHGAEIAQHEAAKKAFDALNGKAIPKVAQLSAEYAALLEEKREQYEQYKTLRQDMITYQTALRNMDKILGLEPPEQAQEKEQTKPER”, the “soluble on expression in E. coli” value is on record as “not soluble”.

Turning to “MKMSTKGRYGLRAMLDIAVNSKGDIVSVKSIAERQNISESYLEQVFSILRKAAIVKSIKGAQGGYVLADDPSNITVGKILRTLEGNLNVVDIDDRDSEVSKEEKCINEFVWNKINKSIDKVVDNITLGDLLREYQKLEDNSSVMYYI”, the “soluble on expression in E. coli” value was “soluble”.

As for “MSKSDLRMKSNADKVIANLKKMTPIAEKEGAAMVNDSLAKIYQLIVPMTPIKSGDLRRGYRIIKARKLSSGRIVGALINNEKYFRYVNDGHRTKNGGFVKGRFMLQKSNKLANATYIPKRFKQMAIIIVKKG”, the “soluble on expression in E. coli” value was “not soluble”.

On to “MSLEAIRIGEINSYSQIPAFTLPYRNGWQLAVEQINAAGGLLGGRPLEVISRDDGGDPGKAVTAAQELLTRHGVHALAGTFLSHVGLAVSDFARQRKVLFMASEPLTDALTWEKGNRYTYRLRPSTYMQAAMLAAEAAKLPITRWATIAPNYEYGQSAVARFKELLLAARPEVTFVAEQWPALYKLDAGPTVQALQQAEPEGLFNVLFGADLPKFVREGRVRGLFAGRQVVSMLTGEPEYLNPLKDEAPEGWIVTGYPWYDIDTAPHRAFVEAYRARWKEDPFVGSLVGYNTLTAMAVAFEKAGGTESETLVETLKDMAFSTPMGPLSFRASDHQSTMGAWVGRTALRDGKGVMVDWRYVDGGSVLPPPEVVSAWRPAGEGHHHHHH”, for which the “soluble on expression in E. coli” value is reported as “soluble”.

Regarding “MYKILEIADVVKVPPEEFGKDLKETVKKILMEKYEGRLDKDVGFVLSIVDVKDIGEGKVVHGDGSAYHPVVFETLVYIPEMYELIEGEVVDVVEFGSFVRLGPLDGLIHVSQIMDDYVSYDPKREAIIGKETGKVLEIGDYVRARIVAISLKAERKRGSKIALTMRQPYLGKLEWIEEEKAKKQNQE”, the “soluble on expression in E. coli” value is reported as “soluble”.

Take “GSSTVTLPETLLFVSTLDGSLHAVSKRTGSIKWTLKEDPVLQVPTHVEEPAFLPDPNDGSLYTLGSKNNEGLTKLPFTIPELVQASPCRSSDGILYMGKKQDIWYVIDLLTGEKQQTLSSAFADSLSPSTSLLYLGRTEYTITMYDTKTRELRWNATYFDYAASLPEDDVDYKMSHFVSNGDGLVVTVDSESGDVLWIQNYASPVVAFYVWQREGLRKVMHINVAVETLRYLTFMSGEVGRITKWKYPFPKETEAKSKLTPTLYVGKYSTSLYASPSMVHEGVAVVPRGSTLPLLEGPQTDGVTIGDKGESVITPSTDVKFDPGLKSKNKLNYLRNYWLLIGHHETPLSASTKMLERFPNNLPKHRENV”: the “soluble on expression in E. coli” value was “soluble”.

“MEGQTHDAQNNVPEHDNPLMNVKNPSSNLFSKKDAQCLSVLCNGKWLQIVRSSPKVSCEASTCPSHILTKVGENYVAESEKMHKKVISFSSKTFSQGTLQFTMRANGTPHFVFKLENQKDVYVASLSSNVQDQNSYMIHLQRGESSASSSHLVGRINVSTLFSEKVLEREFVLFSSNGENLKIPRTRKNRGLSKKVVHAVKNERRTARLSRTSFIPDLGSWDEQFQAQNYDCLLKNKLPTNLETLAVVVKQETIEDEIGGWGLKFLKRSPMFQRSNDASETETSTSSISMNVVIPSGIHGGPEDGPSSLIERWKSQGNCDCGGWDLCCSLTLLKGQPRKDQYFELFIEVKLSFISSNTSIL”: the “soluble on expression in E. coli” value is “not soluble”.

For “MAHHHHHHMADTEAVAGTEAIPPTQNEQHDSAAKKKQANSYYYWHNHEKERAKVGDVAPMPKPVLLKKSDPSVLPASTASYPITKHSWCDGKKNVTVYIDTKLDEKETMVEDTLQVEFGKRRLTVSYIANVQTSKDVATQRRKQLVLCLAKAIKSKESSYKVKDPSGQIVIRLAKAEETSWWELAKKDGKLSDADDSDEENEGKADEGDGAAEEKA”, the “soluble on expression in E. coli” value is listed as “soluble”.

On to “MAHHHHHHMMRSPFERLYHLNNRRDRDERRNKVFQLSLLERIRDRIVSGSLKEDIARKEERLRKQEEMLTSPNGVFVRLYQNSSPRRSSNAAAEGSDCKSVGEGNRDGRASVNTTGVSSQRASTARSRMSAAESQELCNRLYETAAIVKQKKEAMRKQSVEERQRQQAEELLIARLAGQIQLERSRTRASSKRRPKTPAQLEDEARAALEKLRKEDPEGYEKKVLRGRLLSPAERVMQAERLWKHGYISKAKLEAQKKVLELKKCTFQPTINEFSGSAGVAGSGETRGKGGGGTNDDKHLSAGTDRAQRHRKANRFEELYRKGIQAKVRGETLREERDREARLRILRSRMVSDHHFRRRVELDPLLAERFMKSLVV”, for which the “soluble on expression in E. coli” value is given as “not soluble”.

Consider “VQLVRLLEEKIKSLQIEIENLRKELNYYKAEMEKMLSPPLIEAVVLDVLPDGRVLVRSSSGPNLVVNIASHIDQKLIKPGISVALNQRGSTILEVLPQKEDPIVKTMEIIERPN”, for which the “soluble on expression in E. coli” value is “not soluble”.

For the origin of these results see the DeepSol protein solubility set.
